Results: patent US20180298101A1
pKd: −log10 of the molar value.

How the values were obtained:
[1] = molecular target: JAK1 kinase domain (JH1) (human) (UniProt P23458); assay: cell-based or functional assay
[2] = molecular target: JAK3 kinase domain (JH1) (UniProt P52333); assay: cell-based or functional assay
[3] = molecular target: JAK2 kinase domain (JH1) (UniProt O60674); assay: cell-based or functional assay
[4] = molecular target: TYK2 kinase domain (JH1) (UniProt P29597); assay: cell-based or functional assay
[5] = molecular target: JAK1-Y1034 phosphopeptide with an alanine substitution at the +3 position (human); assay: ITC, alanine-substituted phosphopeptide
[6] = molecular target: JAK1 activation loop phosphopeptide (Tyr1034 phosphorylated) (human); assay: ITC

Substance “hCIS-SH2-BC complex (ternary complex of human GST-CIS-SH2 construct, residues 66-258 with PEST region 174-202 deleted, with Elongin B and Elongin C) (from UniProt Q9NSE2 66-258; Q15370 1-118; P83940 17-112)” has an IC50 of inhibition of JAK1 phosphorylation of a substrate peptide (in vitro kinase assay) [1] of 120 nM, an efficiency of JAK1 kinase inhibition against SOCS1 as reference [1] of 100 fold and a fold difference of kinase inhibition, JAK1 against JAK3 (in vitro kinase assay) [2] of 20 fold. For the same substance, the fold difference of kinase inhibition, JAK1 against JAK2 (in vitro kinase assay) [3] was 20 fold and the fold difference of kinase inhibition, JAK1 against TYK2 (in vitro kinase assay) [4] was 20 fold.
“human CIS lacking both the N-terminal region (residues 1-66) and the PEST motif (ΔNT/ΔPEST) in trimeric complex with elongin B and elongin C (from UniProt Q9NSE2 67-258; Q15370 1-118; Q15369 17-112)” was tested, and the fold reduction of binding against the wild-type JAK1-Y1034 phosphopeptide [5] was 4 fold and the IC50 of inhibition of the JAK1 kinase domain (JH1), in vitro kinase reaction [1] was 600 nM.
“human CIS lacking the N-terminal 34 residues (ΔN34) in trimeric complex with elongin B and elongin C (from UniProt Q9NSE2 35-258; Q15370 1-118; Q15369 17-112)” showed a pKd [6] of 5.00 to 5.66.
